Experimental data: patent publication US20190142860A1, “NUCLEIC ACID BASED TIA-1 INHIBITORS” (Aquinnah Pharmaceuticals, Inc., priority 2015, published 2019)

Assays:
[1] = target: Nucleolysin TIA-1 (endogenous mouse TIA1) (mouse) (UniProt P52912); experiment: TIA1 IP-MS, WT2 cortex
[2] = target: Nucleolysin TIA-1 (endogenous mouse TIA1) (mouse) (UniProt P52912); experiment: TIA1 IP-MS, tau KO 2 cortex
[3] = target: Nucleolysin TIA-1 (endogenous mouse TIA1) (mouse) (UniProt P52912); experiment: TIA1 IP-MS, WT3 cortex
[4] = target: Nucleolysin TIA-1 (endogenous mouse TIA1) (mouse) (UniProt P52912); experiment: TIA1 IP-MS, tau KO 1 cortex
[5] = target: Nucleolysin TIA-1 (endogenous mouse TIA1) (mouse) (UniProt P52912); experiment: TIA1 IP-MS, tau KO 3 cortex
[6] = target: Nucleolysin TIA-1 (endogenous mouse TIA1) (mouse) (UniProt P52912); experiment: TIA1 IP-MS, WT1 cortex

Chain of UniProt P52912 (P52912 whole entry): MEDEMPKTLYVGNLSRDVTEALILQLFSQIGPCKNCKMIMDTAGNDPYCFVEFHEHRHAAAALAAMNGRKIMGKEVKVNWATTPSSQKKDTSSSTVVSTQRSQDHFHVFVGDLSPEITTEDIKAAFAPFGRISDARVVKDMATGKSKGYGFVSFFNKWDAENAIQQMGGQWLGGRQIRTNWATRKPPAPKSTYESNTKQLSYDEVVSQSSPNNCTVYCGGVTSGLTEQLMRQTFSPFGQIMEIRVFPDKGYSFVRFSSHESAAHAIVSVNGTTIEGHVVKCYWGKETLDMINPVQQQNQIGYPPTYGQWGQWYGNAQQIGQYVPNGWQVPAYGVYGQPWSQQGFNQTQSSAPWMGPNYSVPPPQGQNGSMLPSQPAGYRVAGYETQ

Q: How did the total ion current (normalized to TIA1 = 1000) [1] turn out when “26S proteasome non-ATPase regulatory subunit 8 (from UniProt Q9CX56 1-353)” was run?
A: Its total ion current (normalized to TIA1 = 1000) is 0.

Q: What about the total ion current (normalized to TIA1 = 1000) [2] of the same substance?
A: Its total ion current (normalized to TIA1 = 1000) is 0.

Q: What about the total ion current (normalized to TIA1 = 1000) [3] of the same substance?
A: The total ion current (normalized to TIA1 = 1000) was 0.

Q: What about the total ion current (normalized to TIA1 = 1000) [4] of the same substance?
A: The total ion current (normalized to TIA1 = 1000) was 4.11.

Q: What about the total ion current (normalized to TIA1 = 1000) [5] of the same substance?
A: The total ion current (normalized to TIA1 = 1000) was 0.

Q: What about the total ion current (normalized to TIA1 = 1000) [6] of the same substance?
A: Its total ion current (normalized to TIA1 = 1000) is 80.3.

Q: With “28 kDa heat- and acid-stable phosphoprotein (from UniProt Q3UHX2 1-181)” as the substance, how does the total ion current (normalized to TIA1 = 1000) [1] read?
A: Its total ion current (normalized to TIA1 = 1000) is 86.

Q: And the total ion current (normalized to TIA1 = 1000) [2]?
A: The total ion current (normalized to TIA1 = 1000) was 15.7.

Q: What about the total ion current (normalized to TIA1 = 1000) [3] of the same substance?
A: The total ion current (normalized to TIA1 = 1000) was 0.

Q: And the total ion current (normalized to TIA1 = 1000) [4]?
A: Its total ion current (normalized to TIA1 = 1000) is 0.

Q: And the total ion current (normalized to TIA1 = 1000) [5]?
A: Its total ion current (normalized to TIA1 = 1000) is 0.

Q: What about the total ion current (normalized to TIA1 = 1000) [6] of the same substance?
A: The total ion current (normalized to TIA1 = 1000) was 0.

Q: Which total ion current (normalized to TIA1 = 1000) [1] does the source give for “39S ribosomal protein L46, mitochondrial (from UniProt Q9EQI8 1-283)” here?
A: Its total ion current (normalized to TIA1 = 1000) is 52.7.

Q: What about the total ion current (normalized to TIA1 = 1000) [2] of the same substance?
A: Its total ion current (normalized to TIA1 = 1000) is 0.

Q: What about the total ion current (normalized to TIA1 = 1000) [3] of the same substance?
A: The total ion current (normalized to TIA1 = 1000) was 0.

Q: And the total ion current (normalized to TIA1 = 1000) [4]?
A: Its total ion current (normalized to TIA1 = 1000) is 0.

Q: And the total ion current (normalized to TIA1 = 1000) [5]?
A: The total ion current (normalized to TIA1 = 1000) was 0.

Q: What about the total ion current (normalized to TIA1 = 1000) [6] of the same substance?
A: Its total ion current (normalized to TIA1 = 1000) is 0.

Q: “AP-2 complex subunit alpha-2 (from UniProt P17427 1-938)” was tested. Which total ion current (normalized to TIA1 = 1000) [1] did it give?
A: Its total ion current (normalized to TIA1 = 1000) is 128.

Q: What about the total ion current (normalized to TIA1 = 1000) [2] of the same substance?
A: Its total ion current (normalized to TIA1 = 1000) is 186.

Q: What about the total ion current (normalized to TIA1 = 1000) [3] of the same substance?
A: Its total ion current (normalized to TIA1 = 1000) is 68.8.

Q: And the total ion current (normalized to TIA1 = 1000) [4]?
A: Its total ion current (normalized to TIA1 = 1000) is 0.

Q: And the total ion current (normalized to TIA1 = 1000) [5]?
A: The total ion current (normalized to TIA1 = 1000) was 0.

Q: What about the total ion current (normalized to TIA1 = 1000) [6] of the same substance?
A: Its total ion current (normalized to TIA1 = 1000) is 0.

Q: With “ATP synthase subunit O, mitochondrial (from UniProt Q9DB20 24-213)” as the substance, how does the total ion current (normalized to TIA1 = 1000) [1] read?
A: Its total ion current (normalized to TIA1 = 1000) is 375.

Q: And the total ion current (normalized to TIA1 = 1000) [2]?
A: Its total ion current (normalized to TIA1 = 1000) is 0.

Q: And the total ion current (normalized to TIA1 = 1000) [3]?
A: The total ion current (normalized to TIA1 = 1000) was 0.

Q: And the total ion current (normalized to TIA1 = 1000) [4]?
A: Its total ion current (normalized to TIA1 = 1000) is 0.

Q: What about the total ion current (normalized to TIA1 = 1000) [5] of the same substance?
A: The total ion current (normalized to TIA1 = 1000) was 0.

Q: What about the total ion current (normalized to TIA1 = 1000) [6] of the same substance?
A: Its total ion current (normalized to TIA1 = 1000) is 0.

Q: “ATP-dependent 6-phosphofructokinase, platelet type (from UniProt Q9WUA3 1-784)” was tested. Which total ion current (normalized to TIA1 = 1000) [1] did it give?
A: The total ion current (normalized to TIA1 = 1000) was 20.2.

Q: What about the total ion current (normalized to TIA1 = 1000) [2] of the same substance?
A: The total ion current (normalized to TIA1 = 1000) was 67.1.

Q: What about the total ion current (normalized to TIA1 = 1000) [3] of the same substance?
A: The total ion current (normalized to TIA1 = 1000) was 0.

Q: What about the total ion current (normalized to TIA1 = 1000) [4] of the same substance?
A: Its total ion current (normalized to TIA1 = 1000) is 0.

Q: What about the total ion current (normalized to TIA1 = 1000) [5] of the same substance?
A: The total ion current (normalized to TIA1 = 1000) was 0.

Q: What about the total ion current (normalized to TIA1 = 1000) [6] of the same substance?
A: The total ion current (normalized to TIA1 = 1000) was 0.

Q: “Acetyl-CoA acetyltransferase, mitochondrial (from UniProt Q8QZT1 31-424)” was tested. Which total ion current (normalized to TIA1 = 1000) [1] did it give?
A: The total ion current (normalized to TIA1 = 1000) was 175.

Q: And the total ion current (normalized to TIA1 = 1000) [2]?
A: Its total ion current (normalized to TIA1 = 1000) is 70.3.

Q: What about the total ion current (normalized to TIA1 = 1000) [3] of the same substance?
A: The total ion current (normalized to TIA1 = 1000) was 18.1.

Q: What about the total ion current (normalized to TIA1 = 1000) [4] of the same substance?
A: Its total ion current (normalized to TIA1 = 1000) is 0.

Q: And the total ion current (normalized to TIA1 = 1000) [5]?
A: The total ion current (normalized to TIA1 = 1000) was 0.

Q: What about the total ion current (normalized to TIA1 = 1000) [6] of the same substance?
A: Its total ion current (normalized to TIA1 = 1000) is 0.

Q: How did the total ion current (normalized to TIA1 = 1000) [1] turn out when “Aconitate hydratase, mitochondrial (from UniProt Q99KI0 28-780)” was run?
A: The total ion current (normalized to TIA1 = 1000) was 818.

Q: What about the total ion current (normalized to TIA1 = 1000) [2] of the same substance?
A: Its total ion current (normalized to TIA1 = 1000) is 421.

Q: And the total ion current (normalized to TIA1 = 1000) [3]?
A: The total ion current (normalized to TIA1 = 1000) was 164.

Q: And the total ion current (normalized to TIA1 = 1000) [4]?
A: Its total ion current (normalized to TIA1 = 1000) is 0.

Q: What about the total ion current (normalized to TIA1 = 1000) [5] of the same substance?
A: Its total ion current (normalized to TIA1 = 1000) is 0.

Q: And the total ion current (normalized to TIA1 = 1000) [6]?
A: Its total ion current (normalized to TIA1 = 1000) is 0.

Q: What does the source list for “Alpha-actinin-4 (from UniProt P57780 1-912)”?
A: total ion current (normalized to TIA1 = 1000) [1]: 77; total ion current (normalized to TIA1 = 1000) [2]: 28.8; total ion current (normalized to TIA1 = 1000) [3]: 14.5; total ion current (normalized to TIA1 = 1000) [4]: 0; total ion current (normalized to TIA1 = 1000) [5]: 0; total ion current (normalized to TIA1 = 1000) [6]: 0

Q: What does the source list for Amphiphysin (from UniProt Q7TQF7 1-686)?
A: total ion current (normalized to TIA1 = 1000) [1]: 113; total ion current (normalized to TIA1 = 1000) [2]: 0; total ion current (normalized to TIA1 = 1000) [3]: 0; total ion current (normalized to TIA1 = 1000) [4]: 0; total ion current (normalized to TIA1 = 1000) [5]: 0; total ion current (normalized to TIA1 = 1000) [6]: 0

Q: Which total ion current (normalized to TIA1 = 1000) [1] does the source give for Annexin A7 (from UniProt Q07076 1-463) here?
A: Its total ion current (normalized to TIA1 = 1000) is 42.4.

Q: What about the total ion current (normalized to TIA1 = 1000) [2] of the same substance?
A: Its total ion current (normalized to TIA1 = 1000) is 71.9.

Q: And the total ion current (normalized to TIA1 = 1000) [3]?
A: Its total ion current (normalized to TIA1 = 1000) is 44.8.

Q: And the total ion current (normalized to TIA1 = 1000) [4]?
A: Its total ion current (normalized to TIA1 = 1000) is 0.

Q: What about the total ion current (normalized to TIA1 = 1000) [5] of the same substance?
A: The total ion current (normalized to TIA1 = 1000) was 1120.

Q: And the total ion current (normalized to TIA1 = 1000) [6]?
A: The total ion current (normalized to TIA1 = 1000) was 0.

Q: How did the total ion current (normalized to TIA1 = 1000) [1] turn out when “Aspartate aminotransferase, cytoplasmic (from UniProt P05201 2-413)” was run?
A: Its total ion current (normalized to TIA1 = 1000) is 204.

Q: And the total ion current (normalized to TIA1 = 1000) [2]?
A: The total ion current (normalized to TIA1 = 1000) was 136.

Q: And the total ion current (normalized to TIA1 = 1000) [3]?
A: The total ion current (normalized to TIA1 = 1000) was 17.

Q: And the total ion current (normalized to TIA1 = 1000) [4]?
A: Its total ion current (normalized to TIA1 = 1000) is 0.

Q: What about the total ion current (normalized to TIA1 = 1000) [5] of the same substance?
A: Its total ion current (normalized to TIA1 = 1000) is 0.

Q: What about the total ion current (normalized to TIA1 = 1000) [6] of the same substance?
A: Its total ion current (normalized to TIA1 = 1000) is 0.

Q: What does the source list for “Band 4.1-like protein 2 (from UniProt O70318 2-988)”?
A: total ion current (normalized to TIA1 = 1000) [1]: 0; total ion current (normalized to TIA1 = 1000) [2]: 0; total ion current (normalized to TIA1 = 1000) [3]: 0; total ion current (normalized to TIA1 = 1000) [4]: 25.8; total ion current (normalized to TIA1 = 1000) [5]: 0; total ion current (normalized to TIA1 = 1000) [6]: 16.7

Q: What does the source list for “CaM kinase-like vesicle-associated protein (from UniProt Q3UHL1 1-512)”?
A: total ion current (normalized to TIA1 = 1000) [1]: 92.1; total ion current (normalized to TIA1 = 1000) [2]: 0; total ion current (normalized to TIA1 = 1000) [3]: 0; total ion current (normalized to TIA1 = 1000) [4]: 0; total ion current (normalized to TIA1 = 1000) [5]: 0; total ion current (normalized to TIA1 = 1000) [6]: 0
